Among the data in article PMC11033526 (2023) are Kd and koff values, retold here.

No end group written: not given here. *: point of attachment. Biotin = O=C1N[C@H]2[C@H](CS[C@H]2CCCCC(=O)*)N1

For experiment [1], the target named is T1, mouse calmodulin (mouse, UniProt P0DP26 1-149). Briefly: SPR; 1 mM EGTA (no Ca2+). On the technique in general: Surface plasmon resonance follows binding to a sensor surface in real time, without labels.
Experiment [2] addresses T1, mouse calmodulin. Briefly: SPR; 1 mM EGTA (no Ca2+). The source holds these as a separate data set.

Molecule Biotin-GGSGGSPKCYMILFYPERNTSAYFNSMIQGYTMRKS [biotin-mT1r2 CT peptide (cytosolic C-terminal region of mouse taste receptor type 1 subunit 2)] registered a Kd in experiment [1] of 9.7 µM. This molecule registered a koff in experiment [2] of 0.00207 s⁻¹.

The term Kd denotes a measure of binding affinity in units of concentration. As a reminder, the koff is the rate constant with which the complex falls apart. A low value points to slow dissociation.
